Values quoted from earlier work as cited in publication PMC4339652.
Several values for one entry are separate records, joined by “and”; a condition that tells them apart may be missing. Equal entries are not always repeated. Where two headings read alike, the source gives them in different places.

What was measured:
[1] = target: TolA TolAII-III (Escherichia coli) (UniProt P19934); test: SPR
[2] = target: TolA TolAIII (Escherichia coli) (UniProt P19934); test: SPR
[3] = target: TolA TolAIII (Escherichia coli) (UniProt P19934); test: ITC
[4] = target: TolA TolAIII (Escherichia coli) (UniProt P19934); test: stopped flow fluorescence
[5] = target: TolB (Escherichia coli) (UniProt P0A855); test: ITC
Sequence of TolB (Escherichia coli) (P0A855 22-430): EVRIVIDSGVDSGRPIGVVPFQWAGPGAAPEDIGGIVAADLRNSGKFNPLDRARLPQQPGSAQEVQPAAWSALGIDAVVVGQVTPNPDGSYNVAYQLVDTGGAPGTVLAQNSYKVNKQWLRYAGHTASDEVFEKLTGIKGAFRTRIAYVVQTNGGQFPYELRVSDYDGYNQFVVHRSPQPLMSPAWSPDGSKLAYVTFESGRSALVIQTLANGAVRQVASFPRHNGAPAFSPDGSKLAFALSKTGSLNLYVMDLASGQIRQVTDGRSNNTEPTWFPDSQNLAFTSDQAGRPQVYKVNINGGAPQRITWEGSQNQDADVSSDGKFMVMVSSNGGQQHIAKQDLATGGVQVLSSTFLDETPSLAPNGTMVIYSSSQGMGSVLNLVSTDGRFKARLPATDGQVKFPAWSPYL

[6] = target: Colicin N 40-90 (Escherichia coli) (UniProt P08083); test: SPR
Sequence of Colicin N 40-90 (Escherichia coli) (P08083 40-90): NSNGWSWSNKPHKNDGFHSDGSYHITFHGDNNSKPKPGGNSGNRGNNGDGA

[7] = target: TolB (Escherichia coli) (UniProt P0A855); test: ITC; remark: listed apart in the source
[8] = target: G3p N1 (Filamentous phage) (UniProt O80297)
Sequence of G3p N1 (Filamentous phage) (O80297 18-79): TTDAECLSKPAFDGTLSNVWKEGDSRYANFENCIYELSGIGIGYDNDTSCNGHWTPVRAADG

[9] = target: Colicin N T domain (Escherichia coli) (UniProt P08083)
Sequence of Colicin N T domain (Escherichia coli) (P08083 1-90): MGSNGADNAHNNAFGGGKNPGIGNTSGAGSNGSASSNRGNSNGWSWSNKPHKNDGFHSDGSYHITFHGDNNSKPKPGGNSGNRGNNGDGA

Sequence of Colicin N T domain (1-90) (P08083 1-90): as above
Sequence of Colicin N 40-90 (P08083 40-90): as the sequence (P08083 40-90) above
Sequence of TolA TolAII-III (P19934 48-421): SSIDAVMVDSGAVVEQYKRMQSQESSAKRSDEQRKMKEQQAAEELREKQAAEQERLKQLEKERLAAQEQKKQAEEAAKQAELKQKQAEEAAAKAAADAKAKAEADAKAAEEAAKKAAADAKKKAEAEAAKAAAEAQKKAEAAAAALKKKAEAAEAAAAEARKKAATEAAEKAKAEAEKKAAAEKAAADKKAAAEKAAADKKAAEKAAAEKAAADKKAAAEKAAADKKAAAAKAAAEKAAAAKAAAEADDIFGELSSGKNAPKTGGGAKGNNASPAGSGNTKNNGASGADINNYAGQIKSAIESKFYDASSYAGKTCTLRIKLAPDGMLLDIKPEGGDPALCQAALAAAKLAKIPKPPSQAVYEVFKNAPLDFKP
Sequence of TolA TolAIII (Escherichia coli) (P19934 311-421): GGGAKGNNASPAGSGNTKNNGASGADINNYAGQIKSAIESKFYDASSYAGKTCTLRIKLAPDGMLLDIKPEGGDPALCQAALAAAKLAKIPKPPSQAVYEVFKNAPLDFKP
Sequence of TolA TolAIII (P19934 311-421): as above
Sequence of TolA TolAII-III (Escherichia coli) (P19934 48-421): as the sequence (P19934 48-421) above
Sequence of G3p N1 domain (P69168 16-88): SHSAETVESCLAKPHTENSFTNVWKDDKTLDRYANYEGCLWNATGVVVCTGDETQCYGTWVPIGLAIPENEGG
Sequence of TolA TolA (P19934 whole entry): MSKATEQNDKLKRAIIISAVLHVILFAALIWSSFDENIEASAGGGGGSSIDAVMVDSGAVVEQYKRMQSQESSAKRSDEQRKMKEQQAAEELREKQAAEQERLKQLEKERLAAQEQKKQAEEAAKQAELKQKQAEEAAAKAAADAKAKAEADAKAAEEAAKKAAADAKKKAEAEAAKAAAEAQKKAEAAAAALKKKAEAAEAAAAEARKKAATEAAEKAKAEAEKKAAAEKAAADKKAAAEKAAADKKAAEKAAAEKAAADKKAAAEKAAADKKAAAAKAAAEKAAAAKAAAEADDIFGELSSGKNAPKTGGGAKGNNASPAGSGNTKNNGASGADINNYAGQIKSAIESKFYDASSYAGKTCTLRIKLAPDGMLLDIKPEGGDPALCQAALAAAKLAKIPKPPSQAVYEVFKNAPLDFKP

Colicin N 40-90 (from UniProt P08083)
Kd [1]: 940 nM | Kd [2]: 850 nM and 190 nM

Colicin N T domain (1-90) (from UniProt P08083)
Kd [3]: 1000 nM | Kd [2]: 1250 nM | Kd [4]: 2300 nM

G3p N1 domain (from UniProt P69168)
Kd [2]: 1000 nM

TolA TolA (from UniProt P19934)
Kd [5]: 40000 nM

TolA TolAII-III (from UniProt P19934)
Kd [6]: 190 nM and 940 nM and 850 nM

TolA TolAIII (from UniProt P19934)
Kd [5]: 13000 nM | Kd [7]: 40000 nM | Kd [8]: 1000 nM | Kd [9]: 1000 nM
